Laboratory results: US20250084142A1 (INTARCIA THERAPEUTICS, published 2025)
Starred links: 1 amine or outer side, 2 acyl side, 3 side chain; linkers in the order of their positions; H or OH if unused. Non-standard residues stand in square brackets, D forms with d. Groups on a side chain read outwards from the residue. No end group written: not given here. *: point of attachment. C20 diacid = O=C(O)CCCCCCCCCCCCCCCCCCC(=O)*; Phe(4-Me) = Cc1ccc(C[C@H](N)C(=O)O)cc1; γGlu = O=C(O)[C@H](CCC(=O)[*:2])N[*:1]

T1: NPY2R
T1 sequence (P49146 1-381, species assumed, looked up): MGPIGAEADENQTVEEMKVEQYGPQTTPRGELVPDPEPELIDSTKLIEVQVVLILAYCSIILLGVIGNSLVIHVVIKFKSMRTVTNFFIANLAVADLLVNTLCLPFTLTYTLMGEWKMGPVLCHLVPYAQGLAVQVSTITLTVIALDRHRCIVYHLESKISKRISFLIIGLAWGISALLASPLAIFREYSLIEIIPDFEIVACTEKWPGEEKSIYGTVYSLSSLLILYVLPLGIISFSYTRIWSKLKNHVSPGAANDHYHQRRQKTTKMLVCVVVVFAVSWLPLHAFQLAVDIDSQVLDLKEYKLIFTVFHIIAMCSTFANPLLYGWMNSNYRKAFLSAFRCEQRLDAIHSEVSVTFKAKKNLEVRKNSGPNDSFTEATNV

T2: NPY5R
T2 sequence (Q15761 1-445, species assumed, looked up): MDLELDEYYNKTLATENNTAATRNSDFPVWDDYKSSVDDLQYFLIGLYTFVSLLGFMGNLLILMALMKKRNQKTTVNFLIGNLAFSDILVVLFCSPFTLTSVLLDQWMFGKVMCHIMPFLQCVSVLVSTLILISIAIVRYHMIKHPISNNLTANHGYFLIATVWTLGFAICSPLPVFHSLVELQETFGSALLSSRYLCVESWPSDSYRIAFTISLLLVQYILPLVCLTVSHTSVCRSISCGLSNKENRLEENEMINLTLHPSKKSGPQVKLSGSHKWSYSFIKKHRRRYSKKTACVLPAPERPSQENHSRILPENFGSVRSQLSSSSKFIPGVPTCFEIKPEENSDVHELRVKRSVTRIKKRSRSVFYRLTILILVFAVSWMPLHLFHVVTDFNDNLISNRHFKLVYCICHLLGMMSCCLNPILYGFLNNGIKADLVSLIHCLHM

B1: Compound A54 (peptide)
peptide: PKPEAPGKDASPEEWNRYYK([γGlu-γGlu-C20 diacid])DLRHYLNWLTRQRF-NH2
modifications: N-terminus assumed
SMILES: CC(C)C[C@H](NC(=O)[C@H](CC(=O)O)NC(=O)[C@H](CCCCNC(=O)CC[C@H](NC(=O)CC[C@H](NC(=O)CCCCCCCCCCCCCCCCCCC(=O)O)C(=O)O)C(=O)O)NC(=O)[C@H](Cc1ccc(O)cc1)NC(=O)[C@H](Cc1ccc(O)cc1)NC(=O)[C@H](CCCNC(=N)N)NC(=O)[C@H](CC(N)=O)NC(=O)[C@H](Cc1c[nH]c2ccccc12)NC(=O)[C@H](CCC(=O)O)NC(=O)[C@H](CCC(=O)O)NC(=O)[C@@H]1CCCN1C(=O)[C@H](CO)NC(=O)[C@H](C)NC(=O)[C@H](CC(=O)O)NC(=O)[C@H](CCCCN)NC(=O)CNC(=O)[C@@H]1CCCN1C(=O)[C@H](C)NC(=O)[C@H](CCC(=O)O)NC(=O)[C@@H]1CCCN1C(=O)[C@H](CCCCN)NC(=O)[C@@H]1CCCN1)C(=O)N[C@@H](CCCNC(=N)N)C(=O)N[C@@H](Cc1c[nH]cn1)C(=O)N[C@@H](Cc1ccc(O)cc1)C(=O)N[C@@H](CC(C)C)C(=O)N[C@@H](CC(N)=O)C(=O)N[C@@H](Cc1c[nH]c2ccccc12)C(=O)N[C@@H](CC(C)C)C(=O)N[C@H](C(=O)N[C@@H](CCCNC(=N)N)C(=O)N[C@@H](CCC(N)=O)C(=O)N[C@@H](CCCNC(=N)N)C(=O)N[C@@H](Cc1ccccc1)C(N)=O)[C@@H](C)O
B2: Compound A53 (peptide)
peptide: PKPEAPGKDASPEEWNRYYADLK([γGlu-γGlu-C20 diacid])HYLNWLTRQRF-NH2
modifications: N-terminus assumed
SMILES: CC(C)C[C@H](NC(=O)[C@H](CC(=O)O)NC(=O)[C@H](C)NC(=O)[C@H](Cc1ccc(O)cc1)NC(=O)[C@H](Cc1ccc(O)cc1)NC(=O)[C@H](CCCNC(=N)N)NC(=O)[C@H](CC(N)=O)NC(=O)[C@H](Cc1c[nH]c2ccccc12)NC(=O)[C@H](CCC(=O)O)NC(=O)[C@H](CCC(=O)O)NC(=O)[C@@H]1CCCN1C(=O)[C@H](CO)NC(=O)[C@H](C)NC(=O)[C@H](CC(=O)O)NC(=O)[C@H](CCCCN)NC(=O)CNC(=O)[C@@H]1CCCN1C(=O)[C@H](C)NC(=O)[C@H](CCC(=O)O)NC(=O)[C@@H]1CCCN1C(=O)[C@H](CCCCN)NC(=O)[C@@H]1CCCN1)C(=O)N[C@@H](CCCCNC(=O)CC[C@H](NC(=O)CC[C@H](NC(=O)CCCCCCCCCCCCCCCCCCC(=O)O)C(=O)O)C(=O)O)C(=O)N[C@@H](Cc1c[nH]cn1)C(=O)N[C@@H](Cc1ccc(O)cc1)C(=O)N[C@@H](CC(C)C)C(=O)N[C@@H](CC(N)=O)C(=O)N[C@@H](Cc1c[nH]c2ccccc12)C(=O)N[C@@H](CC(C)C)C(=O)N[C@H](C(=O)N[C@@H](CCCNC(=N)N)C(=O)N[C@@H](CCC(N)=O)C(=O)N[C@@H](CCCNC(=N)N)C(=O)N[C@@H](Cc1ccccc1)C(N)=O)[C@@H](C)O
B3: Compound A50 (peptide)
peptide: PKPEAPGKDASPEEWNRYYADLRHYLNWLTRK([γGlu-γGlu-C20 diacid])RF-NH2
modifications: N-terminus assumed
SMILES: CC(C)C[C@H](NC(=O)[C@H](CC(=O)O)NC(=O)[C@H](C)NC(=O)[C@H](Cc1ccc(O)cc1)NC(=O)[C@H](Cc1ccc(O)cc1)NC(=O)[C@H](CCCNC(=N)N)NC(=O)[C@H](CC(N)=O)NC(=O)[C@H](Cc1c[nH]c2ccccc12)NC(=O)[C@H](CCC(=O)O)NC(=O)[C@H](CCC(=O)O)NC(=O)[C@@H]1CCCN1C(=O)[C@H](CO)NC(=O)[C@H](C)NC(=O)[C@H](CC(=O)O)NC(=O)[C@H](CCCCN)NC(=O)CNC(=O)[C@@H]1CCCN1C(=O)[C@H](C)NC(=O)[C@H](CCC(=O)O)NC(=O)[C@@H]1CCCN1C(=O)[C@H](CCCCN)NC(=O)[C@@H]1CCCN1)C(=O)N[C@@H](CCCNC(=N)N)C(=O)N[C@@H](Cc1c[nH]cn1)C(=O)N[C@@H](Cc1ccc(O)cc1)C(=O)N[C@@H](CC(C)C)C(=O)N[C@@H](CC(N)=O)C(=O)N[C@@H](Cc1c[nH]c2ccccc12)C(=O)N[C@@H](CC(C)C)C(=O)N[C@H](C(=O)N[C@@H](CCCNC(=N)N)C(=O)N[C@@H](CCCCNC(=O)CC[C@H](NC(=O)CC[C@H](NC(=O)CCCCCCCCCCCCCCCCCCC(=O)O)C(=O)O)C(=O)O)C(=O)N[C@@H](CCCNC(=N)N)C(=O)N[C@@H](Cc1ccccc1)C(N)=O)[C@@H](C)O
B4: Compound A52 (peptide)
peptide: PKPEAPGKDASPEEWNRYYADLRHK([γGlu-γGlu-C20 diacid])LNWLTRQRF-NH2
modifications: N-terminus assumed
SMILES: CC(C)C[C@H](NC(=O)[C@H](CC(=O)O)NC(=O)[C@H](C)NC(=O)[C@H](Cc1ccc(O)cc1)NC(=O)[C@H](Cc1ccc(O)cc1)NC(=O)[C@H](CCCNC(=N)N)NC(=O)[C@H](CC(N)=O)NC(=O)[C@H](Cc1c[nH]c2ccccc12)NC(=O)[C@H](CCC(=O)O)NC(=O)[C@H](CCC(=O)O)NC(=O)[C@@H]1CCCN1C(=O)[C@H](CO)NC(=O)[C@H](C)NC(=O)[C@H](CC(=O)O)NC(=O)[C@H](CCCCN)NC(=O)CNC(=O)[C@@H]1CCCN1C(=O)[C@H](C)NC(=O)[C@H](CCC(=O)O)NC(=O)[C@@H]1CCCN1C(=O)[C@H](CCCCN)NC(=O)[C@@H]1CCCN1)C(=O)N[C@@H](CCCNC(=N)N)C(=O)N[C@@H](Cc1c[nH]cn1)C(=O)N[C@@H](CCCCNC(=O)CC[C@H](NC(=O)CC[C@H](NC(=O)CCCCCCCCCCCCCCCCCCC(=O)O)C(=O)O)C(=O)O)C(=O)N[C@@H](CC(C)C)C(=O)N[C@@H](CC(N)=O)C(=O)N[C@@H](Cc1c[nH]c2ccccc12)C(=O)N[C@@H](CC(C)C)C(=O)N[C@H](C(=O)N[C@@H](CCCNC(=N)N)C(=O)N[C@@H](CCC(N)=O)C(=O)N[C@@H](CCCNC(=N)N)C(=O)N[C@@H](Cc1ccccc1)C(N)=O)[C@@H](C)O
B5: Compound A51 (peptide)
peptide: PKPEAPGKDASPEEWNRYYADLRHYLK([γGlu-γGlu-C20 diacid])WLTRQRF-NH2
modifications: N-terminus assumed
SMILES: CC(C)C[C@H](NC(=O)[C@H](CC(=O)O)NC(=O)[C@H](C)NC(=O)[C@H](Cc1ccc(O)cc1)NC(=O)[C@H](Cc1ccc(O)cc1)NC(=O)[C@H](CCCNC(=N)N)NC(=O)[C@H](CC(N)=O)NC(=O)[C@H](Cc1c[nH]c2ccccc12)NC(=O)[C@H](CCC(=O)O)NC(=O)[C@H](CCC(=O)O)NC(=O)[C@@H]1CCCN1C(=O)[C@H](CO)NC(=O)[C@H](C)NC(=O)[C@H](CC(=O)O)NC(=O)[C@H](CCCCN)NC(=O)CNC(=O)[C@@H]1CCCN1C(=O)[C@H](C)NC(=O)[C@H](CCC(=O)O)NC(=O)[C@@H]1CCCN1C(=O)[C@H](CCCCN)NC(=O)[C@@H]1CCCN1)C(=O)N[C@@H](CCCNC(=N)N)C(=O)N[C@@H](Cc1c[nH]cn1)C(=O)N[C@@H](Cc1ccc(O)cc1)C(=O)N[C@@H](CC(C)C)C(=O)N[C@@H](CCCCNC(=O)CC[C@H](NC(=O)CC[C@H](NC(=O)CCCCCCCCCCCCCCCCCCC(=O)O)C(=O)O)C(=O)O)C(=O)N[C@@H](Cc1c[nH]c2ccccc12)C(=O)N[C@@H](CC(C)C)C(=O)N[C@H](C(=O)N[C@@H](CCCNC(=N)N)C(=O)N[C@@H](CCC(N)=O)C(=O)N[C@@H](CCCNC(=N)N)C(=O)N[C@@H](Cc1ccccc1)C(N)=O)[C@@H](C)O
B6: Compound A55 (peptide)
peptide: PKPEAPGKDASPEEWK([γGlu-γGlu-C20 diacid])RYYADLRHYLNWLTRQRF-NH2
modifications: N-terminus assumed
SMILES: CC(C)C[C@H](NC(=O)[C@H](CC(=O)O)NC(=O)[C@H](C)NC(=O)[C@H](Cc1ccc(O)cc1)NC(=O)[C@H](Cc1ccc(O)cc1)NC(=O)[C@H](CCCNC(=N)N)NC(=O)[C@H](CCCCNC(=O)CC[C@H](NC(=O)CC[C@H](NC(=O)CCCCCCCCCCCCCCCCCCC(=O)O)C(=O)O)C(=O)O)NC(=O)[C@H](Cc1c[nH]c2ccccc12)NC(=O)[C@H](CCC(=O)O)NC(=O)[C@H](CCC(=O)O)NC(=O)[C@@H]1CCCN1C(=O)[C@H](CO)NC(=O)[C@H](C)NC(=O)[C@H](CC(=O)O)NC(=O)[C@H](CCCCN)NC(=O)CNC(=O)[C@@H]1CCCN1C(=O)[C@H](C)NC(=O)[C@H](CCC(=O)O)NC(=O)[C@@H]1CCCN1C(=O)[C@H](CCCCN)NC(=O)[C@@H]1CCCN1)C(=O)N[C@@H](CCCNC(=N)N)C(=O)N[C@@H](Cc1c[nH]cn1)C(=O)N[C@@H](Cc1ccc(O)cc1)C(=O)N[C@@H](CC(C)C)C(=O)N[C@@H](CC(N)=O)C(=O)N[C@@H](Cc1c[nH]c2ccccc12)C(=O)N[C@@H](CC(C)C)C(=O)N[C@H](C(=O)N[C@@H](CCCNC(=N)N)C(=O)N[C@@H](CCC(N)=O)C(=O)N[C@@H](CCCNC(=N)N)C(=O)N[C@@H](Cc1ccccc1)C(N)=O)[C@@H](C)O

Target: T1, NPY2R
Experiment: cell-based or functional assay

| NPY2R pEC50 | Binder |
| --- | --- |
| 7.7 -Log(EC50, M) | B1 |
| 8.7 -Log(EC50, M) | B2 |
| 6 -Log(EC50, M) | B3 |
| 8.4 -Log(EC50, M) | B4 |
| 10.3 -Log(EC50, M) | PKPEAPGK([γGlu-γGlu-C20 diacid])DASPEEWNRYYADLRHYLNWLTRQR[Phe(4-Me)]-NH2 [Compound A58] |
| 6 -Log(EC50, M) | B5 |
| 8.9 -Log(EC50, M) | B6 |

Target: T2, NPY5R
Experiment: cell-based or functional assay

| NPY5R pEC50 | Binder |
| --- | --- |
| 8 -Log(EC50, M) | B1 |
| 7.3 -Log(EC50, M) | B2 |
| 6 -Log(EC50, M) | B3 |
| 8 -Log(EC50, M) | B4 |
| 8.8 -Log(EC50, M) | PKPEAPGK([γGlu-γGlu-C20 diacid])DASPEEWNRYYADLRHYLNWLTRQR[Phe(4-Me)]-NH2 [Compound A58] |
| 6 -Log(EC50, M) | B5 |
| 7.7 -Log(EC50, M) | B6 |
